Reference: US20130288389A1

Molecular target: human rPrP^C 23-231 (human) (UniProt P04156)
Test: cell-based or functional assay

“human sporadic CJD (sCJD) brain homogenate PrP-res (from UniProt P04156 23-230)” showed an eQuIC seeded conversion of substrate: lowest PrP-res amount detected of 1 fg.
